Reference: publication PMC4909244, “Crystal structure of glutamate-1-semialdehyde-2,1-aminomutase from Arabidopsis thaliana” (Acta Crystallographica. Section F, Structural Biology …, 2016)

Target: the molecule itself
Assay: SEC; size-exclusion chromatography, in solution; data not shown

B1: Glutamate-1-semialdehyde-2,1-aminomutase from Arabidopsis thaliana (AtGSA1) (enzyme)
chain: not shown
notes: The sense primer puts a TEV site (ENLYFQG) directly before VDEKKKS, so a Gly may remain at the N-terminus after cleavage (surmised from the primer); The protein retains the cofactors PMP/PLP; The first six N-terminal residues are not modelled in the structure; also called GSAM; glutamate-1-semialdehyde aminotransferase; source: E. coli BL21(DE3), purified (nickel-nitrilotriacetic acid column, TEV …)
B1 was tested. Which “stoichiometry N” value did it give?
Its value is 2.
